# Data as given in patent US20200277355A1.
# Legend:
# [1] = biological target: TNFR1; assay: MST, fluorescently labelled TNFR1, TNF-α titrated, without SN10
# [2] = biological target: TNFR2; assay: MST, fluorescently labelled TNFR2, TNF-α titrated, without SN10
# [3] = biological target: TNFR2; assay: MST competition, fluorescently labelled TNFR2, TNF-α titrated in the presence of 100 µM SN10
# [4] = biological target: TNF-α; assay: MST, fluorescently labelled TNF-α, TNFR1 titrated, without SN10
Substance,Kd [1],Kd [2],KD in the presence of 100µM SN10 [3],Kd [4]
TNF-α (ligand),116 nM,328 nM,384 nM,–
TNFR1 (receptor),–,–,–,2.84 nM
